Residue numbers refer to the chain shown, from its start. Names may count otherwise.
B1: hLAG-3 mAb 1 (1.4) (constant region not stated) (antibody, V domains shown)
VH: QVQLVQSGAEVKKPGASVKVSCKASGYTFTNYGMNWVRQAPGQGLEWMGWINTYTGESTYADDFEGRFVFSMDTSASTAYLQISSLKAEDTAVYYCARESLYDYYSMDYWGQGTTVTVSS
VL: DIVMTQTPLSLSVTPGQPASISCKSSQSLLHSDAKTYLNWLLQKPGQPPERLIYLVSELDSGVPDRFSGSGSGTDFTLKISRVEAEDVGVYYCWQGTHFPYTFGGGTKVEIK
notes: also called hLAG-3 1 (1.4); humanized hLAG-3 1 (1.4)
B2: hLAG-3 mAb 6 (1.1) (antibody, V domains shown)
VH: QVQLVQSGAEVKKPGASVKVSCKASGYTFTDYNMDWVRQAPGQGLEWMGDINPDNGVTIYNQKFEGRVTMTTDTSTSTAYMELRSLRSDDTAVYYCAREADYFYFDYWGQGTTLTVSS
VL: DIQMTQSPSSLSASVGDRVTITCRASQDVSSVVAWYQQKPGKAPKLLIYSASYRYTGVPSRFSGSGSGTDFTLTISSLQPEDFATYYCQQHYSTPWTFGGGTKLEIK
notes: also called hLAG-3 6 (1.1); humanized LAG-3 mAb 6
B3: hLAG-3 mAb 1 (1.4), human IgG1 (AA) (antibody)
heavy: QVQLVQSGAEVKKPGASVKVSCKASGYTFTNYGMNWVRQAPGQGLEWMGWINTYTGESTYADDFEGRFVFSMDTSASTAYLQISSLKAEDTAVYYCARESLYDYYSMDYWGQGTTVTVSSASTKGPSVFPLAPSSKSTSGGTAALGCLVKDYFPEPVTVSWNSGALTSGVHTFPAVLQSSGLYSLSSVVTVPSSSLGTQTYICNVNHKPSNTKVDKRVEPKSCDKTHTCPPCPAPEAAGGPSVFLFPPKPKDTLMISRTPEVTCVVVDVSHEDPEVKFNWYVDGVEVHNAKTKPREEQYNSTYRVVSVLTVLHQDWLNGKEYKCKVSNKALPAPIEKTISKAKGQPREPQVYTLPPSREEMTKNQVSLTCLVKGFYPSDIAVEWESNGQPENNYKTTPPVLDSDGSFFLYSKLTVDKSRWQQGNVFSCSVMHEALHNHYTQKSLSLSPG
light: DIVMTQTPLSLSVTPGQPASISCKSSQSLLHSDAKTYLNWLLQKPGQPPERLIYLVSELDSGVPDRFSGSGSGTDFTLKISRVEAEDVGVYYCWQGTHFPYTFGGGTKVEIKRTVAAPSVFIFPPSDEQLKSGTASVVCLLNNFYPREAKVQWKVDNALQSGNSQESVTEQDSKDSTYSLSSTLTLSKADYEKHKVYACEVTHQGLSSPVTKSFNRGEC
notes: also called hLAG-3 mAb 1 (1.4)^c, e
B4: hLAG-3 mAb 1 (1.4), IgG4 (S228P) (antibody)
heavy: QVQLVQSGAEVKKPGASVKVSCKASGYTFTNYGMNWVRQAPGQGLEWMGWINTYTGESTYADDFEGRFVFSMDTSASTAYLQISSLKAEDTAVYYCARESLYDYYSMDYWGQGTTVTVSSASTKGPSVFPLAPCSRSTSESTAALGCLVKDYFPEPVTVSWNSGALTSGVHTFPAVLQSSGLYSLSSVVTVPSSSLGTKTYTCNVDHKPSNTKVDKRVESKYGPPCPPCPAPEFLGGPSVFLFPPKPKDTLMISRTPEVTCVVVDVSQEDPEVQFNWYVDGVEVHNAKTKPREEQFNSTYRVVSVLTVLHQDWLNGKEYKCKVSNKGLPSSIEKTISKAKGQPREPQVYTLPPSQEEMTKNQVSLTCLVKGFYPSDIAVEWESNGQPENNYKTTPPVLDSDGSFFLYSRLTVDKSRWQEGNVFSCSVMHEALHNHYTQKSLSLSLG
light: B3 light
notes: also called hLAG-3 mAb 1 (1.4)^c, f
B5: LAG-3 mAb A (antibody, V domains shown)
VH: QVQLQQWGAGLLKPSETLSLTCAVYGGSFSDYYWNWIRQPPGKGLEWIGEINHNGNTNSNPSLKSRVTLSLDTSKNQFSLKLRSVTAADTAVYYCAFGYSDYEYNWFDPWGQGTLVTVSS
VL: EIVLTQSPATLSLSPGERATLSCRASQSISSYLAWYQQKPGQAPRLLIYDASNRATGIPARFSGSGSGTDFTLTISSLEPEDFAVYYCQQRSNWPLTFGQGTNLEIK
notes: also called 25F7; BMS-986016
B6: LAG-3 mAb 1 (antibody, V domains shown)
VH: QIQLVQSGPELKKPGETVKISCKASGYTFRNYGMNWVKQAPGKVLKWMGWINTYTGESTYADDFEGRFAFSLGTSASTAYLQINILKNEDTATYFCARESLYDYYSMDYWGQGTSVTVSS
VL: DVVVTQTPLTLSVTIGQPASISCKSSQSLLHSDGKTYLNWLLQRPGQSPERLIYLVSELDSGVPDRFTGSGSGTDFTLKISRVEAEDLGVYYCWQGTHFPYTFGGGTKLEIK
notes: Murine monoclonal antibody; also called murine anti-human antibody LAG-3 mAb 1
B7: LAG-3 mAb 3 (antibody, V domains shown)
VH: EVRLQQSGPELVKPGASVKISCKASGYTFTDYNIHWVRQSHGQSLEWIGYIYPYNGDTGYNQKFKTKATLTVDNSSNTAYMELRSLASEDSAVYYCTRWSRNYFGPWFAYWGQGTLVTVSA
VL: DIVLTQSPTSLAVSLGQRATISCKASQSVDYDGDSYMNWYQQKPGQPPKLLIYAASNLESGIPARFSGSGSGTDFTLNIHPVEEEDAATYYCQQSSEDPLTFGAGTKLELK
notes: Murine monoclonal antibody
B8: LAG-3 mAb 2 (antibody, V domains shown)
VH: EVQLQQSGPELVKPGASVKISCKTSGYTFTDYNIHWLRQSHGESLEWIGYIYPYSGDIGYNQKFKNRATLTVDNSSSTAYMDLRSLTSEDSAVFYCARWHRNYFGPWFAYWGQGTPVTVSA
VL: B7 VL with T9A, D34E, A54V, A55V
notes: Murine monoclonal antibody
B9: LAG-3 mAb 4 (antibody, V domains shown)
VH: EVQLHQSGPELVKPGASVKISCKTSGYTFTDYNIHWVKQSHGKSLEWIGYIYPYNGDAGYNQNFKTKATLTVDNSSSTAYMELRSLTSEDSAVYYCARWNMNYFGPWFAYWGQGTLVTVSA
VL: B7 VL with T9A, D34V, S35T, M37I, Y53F, S96N
notes: Murine monoclonal antibody
B10: LAG-3 mAb 5 (antibody, V domains shown)
VH: B8 VH with T24A, L37V, R38K, H41P, E43K, I58F, N66S, R67K, P116L
VL: B7 VL with T9A, D34E, A54V, A55V
notes: Murine monoclonal antibody
B11: LAG-3 mAb 6 (antibody, V domains shown)
VH: EVLLQQSGPELVKPGASVKIPCKASGYTFTDYNMDWVKQSHGESLEWIGDINPDNGVTIYNQKFEGKATLTVDKSSSTAYMELRSLTSEDTAVYYCAREADYFYFDYWGQGTTLTVSS
VL: DIVMTQSHRFMSTSVGDRVSITCKASQDVSSVVAWYQQKPGQSPKLLIFSASYRYTGVPDRFTGSGSGTDFTFTISSVQAADLAVYYCQQHYSTPWTFGGGTKLEIK
notes: Murine monoclonal antibody
B12: hLAG-3 mAb 1 (1.2), human IgG1 (AA) (antibody, V domains shown)
VH: B1 VH
VL: DIVMTQTPLSLSVTPGQPASISCKSSQSLLHSDGKTYLNWLLQRPGQSPERLIYLVSELDSGVPDRFSGSGSGTDFTLKISRVEAEDVGVYYCWQGTHFPYTFGGGTKVEIKR
notes: also called hLAG-3 1 (1.2)
B13: hLAG-3 mAb 1 (1.1), human IgG1 (AA) (antibody, V domains shown)
VH: B1 VH
VL: B12 VL with R44K
notes: also called hLAG-3 1 (1.1)
B14: hLAG-3 mAb 1 (2.2), human IgG1 (AA) (antibody, V domains shown)
VH: B1 VH with Y95F
VL: B12 VL
notes: also called hLAG-3 1 (2.2)

molecular target: T1, soluble human LAG-3 fusion protein (extracellular domain of human LAG-3 fused to murine IgG2a) (human; murine, UniProt P18627 23-450); assay: SPR (Biacore); human LAG-3 ECD-murine IgG2a fusion captured on Fab2 goat-anti-mouse Fc, antibody in solution
T1 construct: also called human LAG-3-murine IgG2a fusion protein; not shown: murine IgG2a
T1 sequence: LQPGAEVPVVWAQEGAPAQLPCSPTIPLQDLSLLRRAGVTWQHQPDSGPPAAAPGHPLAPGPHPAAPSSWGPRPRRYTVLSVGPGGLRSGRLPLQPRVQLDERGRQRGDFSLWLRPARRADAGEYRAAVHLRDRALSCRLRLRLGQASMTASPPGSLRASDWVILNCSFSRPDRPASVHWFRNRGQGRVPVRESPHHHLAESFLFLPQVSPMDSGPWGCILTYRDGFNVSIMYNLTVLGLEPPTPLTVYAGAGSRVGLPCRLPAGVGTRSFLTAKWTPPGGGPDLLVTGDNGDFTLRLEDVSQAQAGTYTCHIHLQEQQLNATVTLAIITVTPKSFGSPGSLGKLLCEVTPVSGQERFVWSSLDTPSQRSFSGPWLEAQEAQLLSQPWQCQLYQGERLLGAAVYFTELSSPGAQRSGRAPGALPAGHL

Binder | Kd
B1 | < 0.29 nM
B2 | < 0.1 nM

molecular target: T2, His-tagged soluble human LAG-3 (shLAG-3-His) (human, UniProt P18627 23-450); assay: SPR (Biacore); antibody captured on immobilized Fab2 goat anti-human Fc, shLAG-3-His in solution
T2 construct: also called soluble human LAG-3-His fusion protein; extracellular domain of human LAG-3 fused to a His tag; not shown: His tag
T2 sequence: T1 sequence

Binder | Kd
B3 | 0.04 nM
B4 | 0.05 nM

molecular target: T2, His-tagged soluble human LAG-3 …; assay: ELISA, blocking; antibody mixed with soluble human LAG-3-His (0.2 ug/ml), binding to immobilized MHC class II

Binder | IC50 (read off the curve)
B1 | ~0.3 nM
B5 | ~0.2 nM
B2 | ~0.3 nM

molecular target: T3, soluble human LAG-3-Fc fusion protein (shLAG-3-Fc) (human, UniProt P18627 23-450, biotinylated in the Daudi cell assay); assay: flow cytometry, blocking of biotinylated soluble human LAG-3-Fc binding to MHC class II on Daudi cells
T3 construct: also called biotinylated-soluble human LAG-3-Fc fusion protein; not shown: Fc portion; detected with goat anti-human Fc gamma
T3 sequence: T1 sequence

Binder | IC50 (read off the curve)
B6 | ~3 ng/mL
B5 | ~3 ng/mL
B7 | ~3 ng/mL
B8 | ~3 ng/mL
B9 | ~3 ng/mL
B10 | ~3 ng/mL

molecular target: T4, soluble cynomolgus monkey LAG-3 fusion protein (extracellular domain of cynomolgus monkey LAG-3 fused to … (cynomolgus monkey; murine); assay: SPR (Biacore); cynomolgus LAG-3 ECD-murine IgG2a fusion captured on Fab2 goat-anti-mouse Fc, antibody in solution
T4 construct: extracellular domain; also called cynomolgus LAG-3-murine IgG2a fusion protein

Binder | Kd
B1 | < 0.53 nM
B2 | 3.7 nM

molecular target: T3, soluble human LAG-3-Fc fusion protein …; assay: ELISA, blocking; antibody mixed with soluble human LAG-3-Fc (5 ug/mL), binding to immobilized MHC class II

Binder | IC50 (read off the curve)
B6 | ~20 nM
B7 | ~30 nM
B10 | ~30 nM

molecular target: T2, His-tagged soluble human LAG-3 …; assay: SPR (Biacore); antibody captured on immobilized Fab2 goat-anti-mouse Fc, shLAG-3-His in solution

Binder | Kd
B6 | 0.013 nM
B11 | 0.02 nM
B7 | 4.4 nM
B8 | 1.9 nM
B9 | 0.8 nM
B10 | 0.9 nM

molecular target: T2, His-tagged soluble human LAG-3 …; assay: SPR (Biacore); antibody captured on immobilized Protein G, shLAG-3-His in solution

Binder | Kd
B6 | 0.01 nM

molecular target: T2, His-tagged soluble human LAG-3 …; assay: SPR (Biacore); antibody captured on immobilized Protein A, shLAG-3-His in solution

Binder | Kd
B12 | 0.01 nM
B13 | 0.04 nM
B14 | 0.3 nM

molecular target: T3, soluble human LAG-3-Fc fusion protein …; assay: flow cytometry, blocking of biotinylated soluble human LAG-3-Fc binding to MHC class II on Daudi cells; remark: another data set of the same source

Binder | IC50 (read off the curve)
B6 | ~100 ng/mL
B5 | ~100 ng/mL
B11 | ~200 ng/mL
